# B1: Hairpin Ribozyme (parent)
# chain: GUCCUCUUUCACGUGCGCGUGAAAGAGAGAAGUGAACCAGAGAAACACACGUUGUGGUAUAUUACCUGGUA
# Variants of: B1
# Experiment: self-cleavage, relative activity (ratio to wild type); higher = more cleavage; co-transcriptional
row,Variant,self-cleavage
1,GUCCUCUUUCACGUGCGCGUGAAAGAGAGAAGUGAACCAGAGAACCACACGUUGUGGUAUAUUACCUGGGA [A45C U70G],0.133
2,GUCCUCUUUCACGUGCGCGUGAAAGAGAGAAGUGAACCAGAGAAGCACACGUCGUGGUAUAUUACCUGGUA [A45G U53C],0.4
3,GUCCUCUUUCACGUGCGCGUGAAAGAGAGAAGUGAACCAGAGAAGCACACGUGGUGGUAUAUUACCUGGUA [A45G U53G],0.108
4,GUCCUCUUUCACGUGCGCGUGAAAGAGAGAAGUGAACCAGAGAACCACACGUUGUGGUAGAUUACCUGGUA [A45C U60G],0.165
5,GUCCUCUUUCACGUGCGCGUGAAAGAGAGAAGUGAACCAGAGAACCACACGUUGUGGUAUUUUACCUGGUA [A45C A61U],0.186
6,GUCCUCUUUCACGUGCGCGUGAAAGAGAGAAGUGAACCAGAGAACCACACGUUGUGGUAUCUUACCUGGUA [A45C A61C],0.239
7,GUCCUCUUUCACGUGCGCGUGAAAGAGAGAAGUGAACCAGAGAAGCACACUUUGUGGUAUAUUACCUGGUA [A45G G51U],0.271
8,GUCCUCUUUCACGUGCGCGUGAAAGAGAGAAGUGAACCAGAGAAGCACACGUUGUGGUAUAUUACCUGGAA [A45G U70A],0.184
9,GUCCUCUUUCACGUGCGCGUGAAAGAGAGAAGUGAACCAGAGAAGCACACGUUGUGGUAUAUUACCUGGGA [A45G U70G],0.137
10,GUCCUCUUUCACGUGCGCGUGAAAGAGAGAAGUGAACCAGAGAAGCACACGUUGUGGUAUAUUACCUCGUA [A45G G68C],0.136
11,GUCCUCUUUCACGUGCGCGUGAAAGAGAGAAGUGAACCAGAGAAUCACACGUUGUGGUCUAUUACCUGGUA [A45U A59C],0.285
12,GUCCUCUUUCACGUGCGCGUGAAAGAGAGAAGUGAACCAGAGAAUCACACGUUGUGGUUUAUUACCUGGUA [A45U A59U],0.154
13,GUCCUCUUUCACGUGCGCGUGAAAGAGAGAAGUGAACCAGAGAAUCACACGUUGUGGUGUAUUACCUGGUA [A45U A59G],0.0526
14,GUCCUCUUUCACGUGCGCGUGAAAGAGAGAAGUGAACCAGAGAACCACACGUUGUGGUUUAUUACCUGGUA [A45C A59U],0.151
15,GUCCUCUUUCACGUGCGCGUGAAAGAGAGAAGUGAACCAGAGAACCACACGUUGUGGUCUAUUACCUGGUA [A45C A59C],0.358
16,GUCCUCUUUCACGUGCGCGUGAAAGAGAGAAGUGAACCAGAGAACCACACGUUGUGAUAUAUUACCUGGUA [A45C G57A],0.115
17,GUCCUCUUUCACGUGCGCGUGAAAGAGAGAAGUGAACCAGAGAACCACACGUUGUGGUAUAUUACCUGUUA [A45C G69U],0.215
18,GUCCUCUUUCACGUGCGCGUGAAAGAGAGAAGUGAACCAGAGAACCACACGUUGUGGUAUAUUACCUGCUA [A45C G69C],0.193
19,GUCCUCUUUCACGUGCGCGUGAAAGAGAGAAGUGAACCAGAGAUACACACGUCGUGGUAUAUUACCUGGUA [A44U U53C],0.0977
20,GUCCUCUUUCACGUGCGCGUGAAAGAGAGAAGUGAACCAGAGAUACACACGUUGUGGAAUAUUACCUGGUA [A44U U58A],0.0794
21,GUCCUCUUUCACGUGCGCGUGAAAGAGAGAAGUGAACCAGAGAUACACACGUUGUGGCAUAUUACCUGGUA [A44U U58C],0.177
22,GUCCUCUUUCACGUGCGCGUGAAAGAGAGAAGUGAACCAGAGAAGCACACGUUGUGGUAUAUUACUUGGUA [A45G C66U],0.218
23,GUCCUCUUUCACGUGCGCGUGAAAGAGAGAAGUGAACCAGAGAAGCACACGUUGUGGUAUAUUACCUGGUU [A45G A71U],0.0799
24,GUCCUCUUUCACGUGCGCGUGAAAGAGAGAAGUGAACCAGAGAAGCACACGUUGUGGUAUAUUACCUGGUG [A45G A71G],0.269
25,GUCCUCUUUCACGUGCGCGUGAAAGAGAGAAGUGAACCAGAGAAGCACACGUUGUGGUAUAUUACCUGGUC [A45G A71C],0.399
26,GUCCUCUUUCACGUGCGCGUGAAAGAGAGAAGUGAACCAGAGAACCACACGUCGUGGUAUAUUACCUGGUA [A45C U53C],0.0463

row,Variant,self-cleavage
1,GUCCUCUUUCACGUGCGCGUGAAAGAGAGAAGUGAACCAGAGAACCACACGUAGUGGUAUAUUACCUGGUA [A45C U53A],0.123
2,GUCCUCUUUCACGUGCGCGUGAAAGAGAGAAGUGAACCAGAGAUACACACGUUGUGGUAUAUUACCUGGAA [A44U U70A],0.0951
3,GUCCUCUUUCACGUGCGCGUGAAAGAGAGAAGUGAACCAGAGAUACACACGUUGUGGUAUAUUACCUGGCA [A44U U70C],0.0872
4,GUCCUCUUUCACGUGCGCGUGAAAGAGAGAAGUGAACCAGAGAAGCACACGUUGUGGGAUAUUACCUGGUA [A45G U58G],0.199
5,GUCCUCUUUCACGUGCGCGUGAAAGAGAGAAGUGAACCAGAGAUACACACGAUGUGGUAUAUUACCUGGUA [A44U U52A],0.237
6,GUCCUCUUUCACGUGCGCGUGAAAGAGAGAAGUGAACCAGAGAAUCGCACGUUGUGGUAUAUUACCUGGUA [A45U A47G],0.178
7,GUCCUCUUUCACGUGCGCGUGAAAGAGAGAAGUGAACCAGAGAAUCCCACGUUGUGGUAUAUUACCUGGUA [A45U A47C],0.132
8,GUCCUCUUUCACGUGCGCGUGAAAGAGAGAAGUGAACCAGAGAAUCUCACGUUGUGGUAUAUUACCUGGUA [A45U A47U],0.0501
9,GUCCUCUUUCACGUGCGCGUGAAAGAGAGAAGUGAACCAGAGAAUCACUCGUUGUGGUAUAUUACCUGGUA [A45U A49U],0.17
10,GUCCUCUUUCACGUGCGCGUGAAAGAGAGAAGUGAACCAGAGAAGCCCACGUUGUGGUAUAUUACCUGGUA [A45G A47C],0.228
11,GUCCUCUUUCACGUGCGCGUGAAAGAGAGAAGUGAACCAGAGAAGCUCACGUUGUGGUAUAUUACCUGGUA [A45G A47U],0.113
12,GUCCUCUUUCACGUGCGCGUGAAAGAGAGAAGUGAACCAGAGAAGCACACGUUGUGGUAUAUUACCGGGUA [A45G U67G],0.0311
13,GUCCUCUUUCACGUGCGCGUGAAAGAGAGAAGUGAACCAGAGAACCACACGUUGUGGUAUAUUACAUGGUA [A45C C66A],0.187
14,GUCCUCUUUCACGUGCGCGUGAAAGAGAGAAGUGAACCAGAGAACCACACGUUGUGGUAUAUUACGUGGUA [A45C C66G],0.319
15,GUCCUCUUUCACGUGCGCGUGAAAGAGAGAAGUGAACCAGAGAACCACACGUUGUGGUAUAUUACUUGGUA [A45C C66U],0
16,GUCCUCUUUCACGUGCGCGUGAAAGAGAGAAGUGAACCAGAGAAGCACACGUUGUGGUAAAUUACCUGGUA [A45G U60A],0.105
17,GUCCUCUUUCACGUGCGCGUGAAAGAGAGAAGUGAACCAGAGAACCACACGUUGUGGUAUAUUACCUGGUU [A45C A71U],0.184
18,GUCCUCUUUCACGUGCGCGUGAAAGAGAGAAGUGAACCAGAGAACCACACGUUGUGGUAUAUUACCUGGUC [A45C A71C],0.453
19,GUCCUCUUUCACGUGCGCGUGAAAGAGAGAAGUGAACCAGAGAACCACACGUUGUGGUAUAUUACCAGGUA [A45C U67A],0.118
20,GUCCUCUUUCACGUGCGCGUGAAAGAGAGAAGUGAACCAGAGAAGGACACGUUGUGGUAUAUUACCUGGUA [A45G C46G],0.181
21,GUCCUCUUUCACGUGCGCGUGAAAGAGAGAAGUGAACCAGAGAAGCACACGUUGCGGUAUAUUACCUGGUA [A45G U55C],0.124
22,GUCCUCUUUCACGUGCGCGUGAAAGAGAGAAGUGAACCAGAGAAGCACACGUUGGGGUAUAUUACCUGGUA [A45G U55G],0
23,GUCCUCUUUCACGUGCGCGUGAAAGAGAGAAGUGAACCAGAGAAGCAUACGUUGUGGUAUAUUACCUGGUA [A45G C48U],0.0892
24,GUCCUCUUUCACGUGCGCGUGAAAGAGAGAAGUGAACCAGAGAAGCAGACGUUGUGGUAUAUUACCUGGUA [A45G C48G],0.113
25,GUCCUCUUUCACGUGCGCGUGAAAGAGAGAAGUGAACCAGAGAAGCACACGUUGUGGUAUAUAACCUGGUA [A45G U63A],0.124
26,GUCCUCUUUCACGUGCGCGUGAAAGAGAGAAGUGAACCAGAGAACCACACGUUGUGGCAUAUUACCUGGUA [A45C U58C],0.0787

row,Variant,self-cleavage
1,GUCCUCUUUCACGUGCGCGUGAAAGAGAGAAGUGAACCAGAGAACCACACGUUGUGGUAUAAUACCUGGUA [A45C U62A],0.332
2,GUCCUCUUUCACGUGCGCGUGAAAGAGAGAAGUGAACCAGAGAACCACACGUUGUGGUAUAGUACCUGGUA [A45C U62G],0.0741
3,GUCCUCUUUCACGUGCGCGUGAAAGAGAGAAGUGAACCAGAGAACCACACGUUGAGGUAUAUUACCUGGUA [A45C U55A],0.192
4,GUCCUCUUUCACGUGCGCGUGAAAGAGAGAAGUGAACCAGAGAUACACACGUUGAGGUAUAUUACCUGGUA [A44U U55A],0.282
5,GUCCUCUUUCACGUGCGCGUGAAAGAGAGAAGUGAACCAGAGAUACACACGUUGUGGUAUAGUACCUGGUA [A44U U62G],0.0672
6,GUCCUCUUUCACGUGCGCGUGAAAGAGAGAAGUGAACCAGAGAUACACACGUUGUGGUAUACUACCUGGUA [A44U U62C],0.0868
7,GUCCUCUUUCACGUGCGCGUGAAAGAGAGAAGUGAACCAGAGAAGCACACGUUGUGUUAUAUUACCUGGUA [A45G G57U],0.175
8,GUCCUCUUUCACGUGCGCGUGAAAGAGAGAAGUGAACCAGAGAAGCACACGUUAUGGUAUAUUACCUGGUA [A45G G54A],0.218
9,GUCCUCUUUCACGUGCGCGUGAAAGAGAGAAGUGAACCAGAGAAGCACACGUUUUGGUAUAUUACCUGGUA [A45G G54U],0.2
10,GUCCUCUUUCACGUGCGCGUGAAAGAGAGAAGUGAACCAGAGAACCACACAUUGUGGUAUAUUACCUGGUA [A45C G51A],0.0999
11,GUCCUCUUUCACGUGCGCGUGAAAGAGAGAAGUGAACCAGAGAAGCACACGUUGUUGUAUAUUACCUGGUA [A45G G56U],0.131
12,GUCCUCUUUCACGUGCGCGUGAAAGAGAGAAGUGAACCAGAGAUACACACGUUGUGGUAUAUUACCUGCUA [A44U G69C],0.159
13,GUCCUCUUUCACGUGCGCGUGAAAGAGAGAAGUGAACCAGAGAACCACACGUUCUGGUAUAUUACCUGGUA [A45C G54C],0.137
14,GUCCUCUUUCACGUGCGCGUGAAAGAGAGAAGUGAACCAGAGAAGCACACGUUGUGGUUUAUUACCUGGUA [A45G A59U],0.0542
15,GUCCUCUUUCACGUGCGCGUGAAAGAGAGAAGUGAACCAGAGAAGCACACGUUGUGGUGUAUUACCUGGUA [A45G A59G],0.174
16,GUCCUCUUUCACGUGCGCGUGAAAGAGAGAAGUGAACCAGAGAACCACACGUUGUGGUAUAUGACCUGGUA [A45C U63G],0.136
17,GUCCUCUUUCACGUGCGCGUGAAAGAGAGAAGUGAACCAGAGAACCACACGUUGUGGUAUAUCACCUGGUA [A45C U63C],0.0707
18,GUCCUCUUUCACGUGCGCGUGAAAGAGAGAAGUGAACCAGAGAACCGCACGUUGUGGUAUAUUACCUGGUA [A45C A47G],0.0534
19,GUCCUCUUUCACGUGCGCGUGAAAGAGAGAAGUGAACCAGAGAAGCACACGUUGUGGUAUAUUACCUGAUA [A45G G69A],0.117
20,GUCCUCUUUCACGUGCGCGUGAAAGAGAGAAGUGAACCAGAGAAGCACACGUUGUGGUAUAUUACCUGUUA [A45G G69U],0.141
21,GUCCUCUUUCACGUGCGCGUGAAAGAGAGAAGUGAACCAGAGAAGCACACGUUGUGGUAUAUUACCUGCUA [A45G G69C],0.171
22,GUCCUCUUUCACGUGCGCGUGAAAGAGAGAAGUGAACCAGAGAACCACACGUUGUGGUAUAUUACCUAGUA [A45C G68A],0.229
23,GUCCUCUUUCACGUGCGCGUGAAAGAGAGAAGUGAACCAGAGAACCACACGUUGUGGUAUAUUACCUUGUA [A45C G68U],0.166
24,GUCCUCUUUCACGUGCGCGUGAAAGAGAGAAGUGAACCAGAGAUACACACGUUGUGGUAGAUUACCUGGUA [A44U U60G],0.179

# From the RNAGym collection of RNA variant scans (doi:10.7554/elife.80360)
